# Measurements reported in PMC12238454, “Soyasaponin β-glucosidase confers soybean resistance to pod borer (Leguminivora glycinivorella)” (aBIOTECH, 2025).
# B1: GmSSBG1 (SSBG1Δ24; GmBGLU13) (Glycine max) (protein)
# chain: LDLSFLPSDFLFGIASSSYQYEGAYKSDGKGLSNWDNYTHGPGRSVIMDGSNGDIAIDHYHRYLEDIDLMETLGVNSYRLSLSWARILPKGRFGEPNHAGIEFYNRLIDVLLLKGIQPFVTLSHYDIPQELEDRYGSWLSPQLQEDFAFYADLCFKTFGDRVKYWVTFNEPNFLVSLGYRSGLYPPCRCSGQLAMAKCSEGDSEKEPFVAAHNVILSHAAAVDIYRTKYQTEQKGSIGIVLQHEWFEPMSNSTADKLASERARAFNFNWFLDPIIFGKYPTEMENVLGSLLPKFSSYEKEKLKRGLDFIGVNYYTAFYVQDCMYSACKPGPGISRTEGSYKKSGEKNGVPIGEPTPFSWFNIYPDGMEKTVTYVRDRYNNTPIFLTENGYAEEVDPNFTSEEHLNDFKRIKYMVDHIEALLAAIRKGADVRGYFAWTLIDSFEWIYGYTVRYGFHHVDYATLKRTPRLSASWYKQLLVQYKKTFLLGTSMTGHEKLVQHT
# notes: N-terminal 24-residue signal peptide removed (SSBG1Δ24); MBP fusion from pMAL-c2x, E. coli BL21(DE3), amylose resin; tag removal not mentioned
# What was measured:
# Assay in all cases: purified protein
# Format in all cases: biochemical, Glycine max
# Details in all cases: 50 mM Na2HPO4-citric acid buffer, optimal pH 5.5 and temperature 42 °C, apparent Km, substrate 1.25-80 µM
# purified protein [1] = substrate: CC1(C)C[C@H]2C3=CC[C@@H]4[C@@]5(C)CC[C@H](O[C@@H]6O[C@H](C(=O)O)[C@@H](O)[C@H](O)[C@H]6O[C@@H]6O[C@H](CO)[C@H](O)[C@H](O)[C@H]6O)[C@](C)(CO)[C@@H]5CC[C@@]4(C)[C@]3(C)CC[C@@]2(C)[C@H](O[C@@H]2OC[C@H](O)[C@H](O)[C@H]2O)[C@@H]1O
# purified protein [2] = substrate: CC1(C)C[C@H]2C3=CC[C@@H]4[C@@]5(C)CC[C@H](O[C@@H]6O[C@H](C(=O)O)[C@@H](O)[C@H](O)[C@H]6O[C@@H]6O[C@H](CO)[C@H](O)[C@H](O)[C@H]6O[C@@H]6O[C@H](CO)[C@@H](O)[C@H](O)[C@H]6O)[C@](C)(CO)[C@@H]5CC[C@@]4(C)[C@]3(C)CC[C@@]2(C)[C@H](O[C@@H]2OC[C@H](O)[C@H](O)[C@H]2O)[C@@H]1O
# purified protein [3] = substrate: C[C@@H]1O[C@@H](O[C@H]2[C@H](O[C@H]3[C@H](O[C@H]4CC[C@@]5(C)[C@@H](CC[C@]6(C)[C@@H]5CC=C5[C@@H]7CC(C)(C)[C@@H](O)[C@@H](O[C@@H]8OC[C@H](O)[C@H](O)[C@H]8O)[C@]7(C)CC[C@]56C)[C@@]4(C)CO)O[C@H](C(=O)O)[C@@H](O)[C@@H]3O)O[C@H](CO)[C@H](O)[C@@H]2O)[C@H](O)[C@H](O)[C@H]1O
protein,measurement,setting,value
B1,Km,purified protein [1],28.88 µM
same,kcat,purified protein [1],0.0018 s⁻¹
same,Km,purified protein [2],46.51 µM
same,kcat,purified protein [2],0.0040 s⁻¹
same,Km,purified protein [3],165.90 µM
same,kcat,purified protein [3],0.0072 s⁻¹
